PMC9352680, “A comprehensive thermodynamic model for RNA binding by the Saccharomyces cerevisiae Pumilio protein PUF4”

T1: PUF4 RNA-binding domain (Saccharomyces cerevisiae, UniProt P25339 537-888)
T1 sequence: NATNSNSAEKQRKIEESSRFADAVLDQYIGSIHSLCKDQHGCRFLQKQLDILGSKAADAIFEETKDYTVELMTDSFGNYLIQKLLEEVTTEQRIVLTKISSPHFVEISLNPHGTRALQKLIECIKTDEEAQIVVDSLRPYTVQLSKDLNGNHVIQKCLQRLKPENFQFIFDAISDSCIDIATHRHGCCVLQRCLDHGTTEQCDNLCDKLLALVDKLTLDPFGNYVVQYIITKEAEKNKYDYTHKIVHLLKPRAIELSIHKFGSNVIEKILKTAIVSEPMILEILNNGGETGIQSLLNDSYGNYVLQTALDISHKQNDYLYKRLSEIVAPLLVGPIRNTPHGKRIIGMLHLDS


molecular target: T1, PUF4 RNA-binding domain; experiment: Mg; RNA-MaP; 20 mM Na-HEPES pH 7.4, 30 mM KOAc, 0.75 mM MgCl2, 0.1% Tween-20, 5% glycerol, 0.1 mg/mL BSA, 2 mM DTT; 25 C; 0.0125-409.6 nM protein; settings: tags: N-His6-TEV cleaved; C-SNAP kept, Cy3B-labelled; label: tethered on chip by stalled RNA polymerase

Compared with UCUCUUUGUAAGCUGUCUCUU (ssRNA) [Ic_S1_P4E.1_K4.1_C4.1_H4.1_A4.1_[T5A]_[A6G]_[T7C]_F4.1_[A9G]_T4.1], UCUCUUUGUACAGCUUCUCUU (ssRNA) [Ic_S1_P4E.1_K4.1_C4.1_H4.1_A4.1_[T5C]_[T7G]_F4.1_[T8C]_[A9T]_T4.1] is 6.9-fold lower in Kd: 0.544 µM for the first, 0.0783 µM for the second. The second binds more tightly here.

First: UCUCUUUGUAUGUAUCUCUU (ssRNA) [Ic_S1_P3E.1_K3.1_C3.1_H3.1_A3.1_[A6G]_F3.1_T3.1]
Second: UCUCUUUGUACAGCAUCUCUU (ssRNA) [Ic_S1_P4E.1_K4.1_C4.1_H4.1_A4.1_[T5C]_[T7G]_F4.1_[T8C]_T4.1]
The Kd of the first is 1.7-fold higher: 0.0665 µM for the first, 0.0385 µM for the second.

Going from UCUCUUUGUACAAUGUCUCUU (ssRNA) [Ic_S1_P4E.1_K4.1_C4.1_H4.1_A4.1_[T5C]_[T7A]_F4.1_[A9G]_T4.1] to UCUCUUUGUACAAAUUCUCUU (ssRNA) [Ic_S1_P4E.1_K4.1_C4.1_H4.1_A4.1_[T5C]_[T7A]_F4.1_[T8A]_[A9T]_T4.1], the Kd rises from 0.00797 µM to 0.125 µM (16-fold). The first binds more tightly here.

UCUCUUUGUACAGUGUCUCUU (ssRNA) [Ic_S1_P4E.1_K4.1_C4.1_H4.1_A4.1_[T5C]_[T7G]_F4.1_[A9G]_T4.1] and UCUCUUUGUACAGUCUCUCUU (ssRNA) [Ic_S1_P4E.1_K4.1_C4.1_H4.1_A4.1_[T5C]_[T7G]_F4.1_[A9C]_T4.1] are within 1.5-fold of each other in Kd: 0.0165 µM for the first, 0.017 µM for the second.

First: UCUCUUCGUAUAUUUCUCUU (ssRNA) [Ib_S1_P3E.1_K3.1_C3.1_H3.1_[T1C]_A3.1_F3.1_[A8T]_T3.1]
Second: UCUCUUUAUAUAUGUCUCUU (ssRNA) [Ib_S1_P3E.1_K3.1_C3.1_H3.1_[G2A]_A3.1_F3.1_[A8G]_T3.1]
The Kd of the first is lower: 0.83 µM for the first, greater than 2.3 µM for the second.

UCUCUUUAUAUAUUUCUCUU (ssRNA) [Ib_S1_P3E.1_K3.1_C3.1_H3.1_[G2A]_A3.1_F3.1_[A8T]_T3.1] and UCUCUUUGUACUUGGUCUCUU (ssRNA) [Ic_S1_P4E.1_K4.1_C4.1_H4.1_A4.1_[T5C]_[A6T]_F4.1_[T8G]_[A9G]_T4.1] are within 1.5-fold of each other in Kd: 0.696 µM for the first, 0.623 µM for the second.

Going from UCUCUUUGUACAUGGUCUCUU (ssRNA) [Ic_S1_P4E.1_K4.1_C4.1_H4.1_A4.1_[T5C]_F4.1_[T8G]_[A9G]_T4.1] to UCUCUUAGUAUAUUUCUCUU (ssRNA) [Ib_S1_P3E.1_K3.1_C3.1_H3.1_[T1A]_A3.1_F3.1_[A8T]_T3.1], the Kd rises from 0.0596 µM to 1.22 µM (20-fold). The first binds more tightly here.

Compared with UCUCUUUGUACUAUCUCUCUU (ssRNA) [Ic_S1_P4E.1_K4.1_C4.1_H4.1_A4.1_[T5C]_[A6T]_[T7A]_F4.1_[A9C]_T4.1], UCUCUUUGUACUUGCUCUCUU (ssRNA) [Ic_S1_P4E.1_K4.1_C4.1_H4.1_A4.1_[T5C]_[A6T]_F4.1_[T8G]_[A9C]_T4.1] is 30-fold higher in Kd: 0.0138 µM for the first, 0.414 µM for the second. The first binds more tightly here.

Going from UCUCUUUGUACUUAUUCUCUU (ssRNA) [Ic_S1_P4E.1_K4.1_C4.1_H4.1_A4.1_[T5C]_[A6T]_F4.1_[T8A]_[A9T]_T4.1] to UCUCUUUGUACAUCUUCUCUU (ssRNA) [Ic_S1_P4E.1_K4.1_C4.1_H4.1_A4.1_[T5C]_F4.1_[T8C]_[A9T]_T4.1], the Kd falls from 0.0341 µM to 0.0211 µM (1.6-fold).

Compared with UCUCUUUGUACUACAUCUCUU (ssRNA) [Ic_S1_P4E.1_K4.1_C4.1_H4.1_A4.1_[T5C]_[A6T]_[T7A]_F4.1_[T8C]_T4.1], UCUCUUUGUACUAUAUCUCUU (ssRNA) [Ic_S1_P4E.1_K4.1_C4.1_H4.1_A4.1_[T5C]_[A6T]_[T7A]_F4.1_T4.1] is 110-fold lower in Kd: 0.14 µM for the first, 0.00128 µM for the second. The second binds more tightly here.

Compared with UCUCUUUGUACUUGAUCUCUU (ssRNA) [Ic_S1_P4E.1_K4.1_C4.1_H4.1_A4.1_[T5C]_[A6T]_F4.1_[T8G]_T4.1], UCUCUUUCUAUAUUUCUCUU (ssRNA) [Ib_S1_P3E.1_K3.1_C3.1_H3.1_[G2C]_A3.1_F3.1_[A8T]_T3.1] is higher in Kd: 0.465 µM for the first, greater than 2.3 µM for the second.

Going from UCUCUUUGUACACGCUCUCUU (ssRNA) [Ic_S1_P4E.1_K4.1_C4.1_H4.1_A4.1_[T5C]_[T7C]_F4.1_[T8G]_[A9C]_T4.1] to UCUCUUUUUAUAUCUCUCUU (ssRNA) [Ib_S1_P3E.1_K3.1_C3.1_H3.1_[G2T]_A3.1_F3.1_[A8C]_T3.1], the Kd rises from 0.145 µM to greater than 2.3 µM. The first binds more tightly here.

Going from UCUCUUUGUACUUCGUCUCUU (ssRNA) [Ic_S1_P4E.1_K4.1_C4.1_H4.1_A4.1_[T5C]_[A6T]_F4.1_[T8C]_[A9G]_T4.1] to UCUCUUUGUAACGCGUCUCUU (ssRNA) [Ic_S1_P4E.1_K4.1_C4.1_H4.1_A4.1_[T5A]_[A6C]_[T7G]_F4.1_[T8C]_[A9G]_T4.1], the Kd rises from 0.424 µM to greater than 2.3 µM. The first binds more tightly here.

Compared with UCUCUUUGUACAAAAUCUCUU (ssRNA) [Ic_S1_P4E.1_K4.1_C4.1_H4.1_A4.1_[T5C]_[T7A]_F4.1_[T8A]_T4.1], UCUCUUUGUACAACCUCUCUU (ssRNA) [Ic_S1_P4E.1_K4.1_C4.1_H4.1_A4.1_[T5C]_[T7A]_F4.1_[T8C]_[A9C]_T4.1] is 2.4-fold higher in Kd: 0.0341 µM for the first, 0.081 µM for the second.

Going from UCUCUUUGUACAACUUCUCUU (ssRNA) [Ic_S1_P4E.1_K4.1_C4.1_H4.1_A4.1_[T5C]_[T7A]_F4.1_[T8C]_[A9T]_T4.1] to UCUCUUUGUACUUGUUCUCUU (ssRNA) [Ic_S1_P4E.1_K4.1_C4.1_H4.1_A4.1_[T5C]_[A6T]_F4.1_[T8G]_[A9T]_T4.1], the Kd rises from 0.0339 µM to 0.0519 µM (1.5-fold). The first binds more tightly here.

UCUCUUUGUAAGCCAUCUCUU (ssRNA) [Ic_S1_P4E.1_K4.1_C4.1_H4.1_A4.1_[T5A]_[A6G]_[T7C]_F4.1_[T8C]_T4.1] and UCUCUUUGUACUACCUCUCUU (ssRNA) [Ic_S1_P4E.1_K4.1_C4.1_H4.1_A4.1_[T5C]_[A6T]_[T7A]_F4.1_[T8C]_[A9C]_T4.1] are within 1.5-fold of each other in Kd: 0.515 µM for the first, 0.478 µM for the second.

In the case of UCUCUUUGUACUUUUUCUCUU (ssRNA) [Ic_S1_P4E.1_K4.1_C4.1_H4.1_A4.1_[T5C]_[A6T]_F4.1_[A9T]_T4.1], the Kd is reported as 0.0192 µM.
